The target of this assay is NL63 trimer (human coronavirus NL63).

For the substance trACE2-Fc-WT (Fc fusion), the concentration for half-maximal inhibition (IC50) – broadly, the concentration that inhibits the measured activity by half – came out at 0.1 µM.
In turn, flACE2-Fc-WT (Fc fusion) came in with an IC50 of 0.0527 µM.

These data come from patent publication US20250009854A1.
